Results from patent publication US20140072613A1, “Compositions and Methods for Treating Cutaneous Scarring” (priority 2012, published 2014).

What was measured:
Test in all cases: biochemical
Format in all cases: biochemical
266 human kinases [1] = target: 266 human kinases (Homo sapiens, UniProt P06241); details: Fyn(h); 100 μM
Method in brief: (§1)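 Steps: kinase transfers radiolabelled phosphate from ATP onto a positively charged substrate; the substrate is trapped on a negatively charged filter; bound radioactivity is counted by scintillation and compared with uninhibited (100%) activity.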

266 human kinases [2] = target: T1, 266 human kinases (Homo sapiens, UniProt Q12866); details: Mer(h); 100 μM
T1 sequence (Q12866 21-999): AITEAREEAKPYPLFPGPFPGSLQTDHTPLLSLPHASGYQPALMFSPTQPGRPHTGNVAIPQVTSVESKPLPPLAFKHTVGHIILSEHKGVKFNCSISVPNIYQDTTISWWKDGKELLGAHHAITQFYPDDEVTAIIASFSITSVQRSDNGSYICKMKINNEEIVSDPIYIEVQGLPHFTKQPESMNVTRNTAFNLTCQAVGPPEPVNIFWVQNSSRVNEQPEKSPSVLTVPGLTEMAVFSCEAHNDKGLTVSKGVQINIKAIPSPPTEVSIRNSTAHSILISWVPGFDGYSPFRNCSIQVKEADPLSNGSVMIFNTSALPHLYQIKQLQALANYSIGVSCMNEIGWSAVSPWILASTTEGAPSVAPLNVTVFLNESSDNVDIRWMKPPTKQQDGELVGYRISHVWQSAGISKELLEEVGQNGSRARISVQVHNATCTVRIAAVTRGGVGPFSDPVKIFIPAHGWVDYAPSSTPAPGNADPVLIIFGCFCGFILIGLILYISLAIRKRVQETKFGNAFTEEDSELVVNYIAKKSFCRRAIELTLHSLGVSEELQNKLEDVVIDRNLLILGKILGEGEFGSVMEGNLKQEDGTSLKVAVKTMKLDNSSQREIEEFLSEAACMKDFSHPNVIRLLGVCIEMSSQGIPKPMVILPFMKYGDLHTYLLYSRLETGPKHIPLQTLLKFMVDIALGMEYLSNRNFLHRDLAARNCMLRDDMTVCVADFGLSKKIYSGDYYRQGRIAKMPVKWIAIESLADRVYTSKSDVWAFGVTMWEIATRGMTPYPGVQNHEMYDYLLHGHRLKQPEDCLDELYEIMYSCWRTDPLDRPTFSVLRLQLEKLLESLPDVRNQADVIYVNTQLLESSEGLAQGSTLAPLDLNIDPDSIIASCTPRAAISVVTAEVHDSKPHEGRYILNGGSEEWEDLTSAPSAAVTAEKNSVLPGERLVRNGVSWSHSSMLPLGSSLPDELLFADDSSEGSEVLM
Method in brief: as §1

266 human kinases [3] = target: T2, 266 human kinases (Homo sapiens, UniProt Q9NWZ3); details: IRAK4(h); 100 μM
T2 sequence (Q9NWZ3 1-460): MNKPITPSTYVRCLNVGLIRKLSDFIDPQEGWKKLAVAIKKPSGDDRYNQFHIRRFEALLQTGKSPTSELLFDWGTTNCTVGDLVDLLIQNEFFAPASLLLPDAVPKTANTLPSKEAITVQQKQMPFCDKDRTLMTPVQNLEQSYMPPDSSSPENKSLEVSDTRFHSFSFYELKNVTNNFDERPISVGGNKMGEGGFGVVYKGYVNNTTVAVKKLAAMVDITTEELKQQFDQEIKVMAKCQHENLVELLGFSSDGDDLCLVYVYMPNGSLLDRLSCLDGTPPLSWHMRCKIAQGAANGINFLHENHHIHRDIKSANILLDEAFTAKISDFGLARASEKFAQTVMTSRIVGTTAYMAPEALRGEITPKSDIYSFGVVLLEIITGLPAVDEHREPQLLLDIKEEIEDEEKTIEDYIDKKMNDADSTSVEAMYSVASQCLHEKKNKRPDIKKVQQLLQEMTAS
Method in brief: as §1

266 human kinases [4] = target: 266 human kinases (Homo sapiens, UniProt P24723); details: PKGη(h); 100 μM
266 human kinases (Homo sapiens, UniProt P24723), sequence (P24723 whole entry): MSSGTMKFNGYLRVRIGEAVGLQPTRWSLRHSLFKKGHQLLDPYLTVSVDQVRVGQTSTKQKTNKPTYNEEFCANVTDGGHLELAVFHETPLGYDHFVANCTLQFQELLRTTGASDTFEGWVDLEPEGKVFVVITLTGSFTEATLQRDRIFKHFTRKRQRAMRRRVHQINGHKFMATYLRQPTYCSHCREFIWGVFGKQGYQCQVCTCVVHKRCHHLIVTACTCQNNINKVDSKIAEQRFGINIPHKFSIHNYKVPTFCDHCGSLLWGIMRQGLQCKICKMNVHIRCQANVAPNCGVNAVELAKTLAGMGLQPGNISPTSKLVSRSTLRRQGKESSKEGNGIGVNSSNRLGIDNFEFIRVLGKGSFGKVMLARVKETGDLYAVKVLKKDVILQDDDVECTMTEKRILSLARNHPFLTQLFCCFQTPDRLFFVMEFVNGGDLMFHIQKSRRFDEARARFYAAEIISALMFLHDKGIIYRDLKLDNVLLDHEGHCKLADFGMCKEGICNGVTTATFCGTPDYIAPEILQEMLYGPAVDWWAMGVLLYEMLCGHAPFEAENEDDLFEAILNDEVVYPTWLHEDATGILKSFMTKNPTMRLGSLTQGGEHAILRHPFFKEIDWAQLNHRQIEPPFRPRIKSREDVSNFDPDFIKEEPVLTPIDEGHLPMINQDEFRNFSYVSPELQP
Method in brief: as §1

266 human kinases [5] = target: 266 human kinases (Homo sapiens, UniProt P52564); details: MKK6(h); 100 μM
266 human kinases (Homo sapiens, UniProt P52564), sequence (P52564 whole entry): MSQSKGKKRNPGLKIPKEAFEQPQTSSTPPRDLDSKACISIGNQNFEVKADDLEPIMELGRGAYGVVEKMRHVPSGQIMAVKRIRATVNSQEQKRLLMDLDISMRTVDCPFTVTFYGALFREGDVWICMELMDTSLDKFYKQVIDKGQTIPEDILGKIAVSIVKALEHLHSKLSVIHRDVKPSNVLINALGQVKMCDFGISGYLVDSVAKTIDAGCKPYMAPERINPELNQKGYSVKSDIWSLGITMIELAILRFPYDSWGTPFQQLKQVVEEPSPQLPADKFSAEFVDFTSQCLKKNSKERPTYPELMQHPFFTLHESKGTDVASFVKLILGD
Method in brief: as §1

266 human kinases [6] = target: 266 human kinases (Homo sapiens, UniProt P54764); details: EphA4(h); 100 μM
266 human kinases (Homo sapiens, UniProt P54764), sequence (P54764 20-986): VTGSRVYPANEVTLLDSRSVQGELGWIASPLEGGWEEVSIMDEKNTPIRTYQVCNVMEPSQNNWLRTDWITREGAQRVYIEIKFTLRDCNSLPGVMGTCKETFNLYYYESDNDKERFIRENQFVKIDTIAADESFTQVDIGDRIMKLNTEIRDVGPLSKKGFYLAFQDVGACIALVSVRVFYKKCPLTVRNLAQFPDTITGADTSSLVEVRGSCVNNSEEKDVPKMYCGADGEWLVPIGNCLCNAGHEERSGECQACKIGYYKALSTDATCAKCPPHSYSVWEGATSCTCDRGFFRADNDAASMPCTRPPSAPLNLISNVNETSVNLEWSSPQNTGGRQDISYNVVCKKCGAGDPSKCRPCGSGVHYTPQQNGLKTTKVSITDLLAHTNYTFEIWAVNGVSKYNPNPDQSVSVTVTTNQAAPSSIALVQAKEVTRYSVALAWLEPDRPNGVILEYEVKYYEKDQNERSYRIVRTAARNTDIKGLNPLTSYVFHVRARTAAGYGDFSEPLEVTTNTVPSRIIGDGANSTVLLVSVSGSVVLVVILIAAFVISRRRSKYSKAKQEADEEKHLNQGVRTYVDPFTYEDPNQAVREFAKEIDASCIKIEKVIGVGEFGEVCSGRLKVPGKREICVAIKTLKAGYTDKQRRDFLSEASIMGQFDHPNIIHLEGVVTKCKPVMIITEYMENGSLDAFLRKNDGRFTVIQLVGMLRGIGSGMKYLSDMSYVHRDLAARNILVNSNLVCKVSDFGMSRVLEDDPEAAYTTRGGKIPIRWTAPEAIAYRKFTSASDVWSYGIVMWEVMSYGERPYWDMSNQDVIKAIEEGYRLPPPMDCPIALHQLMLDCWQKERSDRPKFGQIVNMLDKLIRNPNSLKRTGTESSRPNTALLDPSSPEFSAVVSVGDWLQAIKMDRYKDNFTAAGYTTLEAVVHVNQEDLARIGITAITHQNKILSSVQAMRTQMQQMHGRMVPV
Method in brief: as §1

266 human kinases [7] = target: 266 human kinases (Homo sapiens, UniProt P06239); details: 100 μM
266 human kinases (Homo sapiens, UniProt P06239), sequence (P06239 whole entry): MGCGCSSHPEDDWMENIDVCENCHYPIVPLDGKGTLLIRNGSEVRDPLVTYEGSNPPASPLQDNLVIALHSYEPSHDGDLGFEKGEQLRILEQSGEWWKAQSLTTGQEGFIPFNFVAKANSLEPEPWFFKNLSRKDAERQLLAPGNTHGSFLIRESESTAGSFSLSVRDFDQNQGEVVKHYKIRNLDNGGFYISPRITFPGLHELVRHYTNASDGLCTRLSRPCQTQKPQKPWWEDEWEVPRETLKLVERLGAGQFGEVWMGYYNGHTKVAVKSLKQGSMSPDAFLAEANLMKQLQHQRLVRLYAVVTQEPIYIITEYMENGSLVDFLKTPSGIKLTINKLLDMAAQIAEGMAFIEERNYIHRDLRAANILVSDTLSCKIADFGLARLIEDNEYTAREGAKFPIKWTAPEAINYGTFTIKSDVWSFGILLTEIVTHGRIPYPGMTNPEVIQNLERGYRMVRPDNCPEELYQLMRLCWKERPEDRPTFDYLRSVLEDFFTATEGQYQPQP
Method in brief: as §1

266 human kinases [8] = target: 266 human kinases (Homo sapiens, UniProt P11362); details: FGFR1(h); 100 μM
Method in brief: as §1

266 human kinases [9] = target: 266 human kinases (Homo sapiens, UniProt Q9BYP7); details: WNK3(h); 100 μM
Method in brief: as §1

266 human kinases [10] = target: 266 human kinases (Homo sapiens, UniProt P23443); details: p70S6K(h); 100 μM
266 human kinases (Homo sapiens, UniProt P23443), sequence (P23443 whole entry): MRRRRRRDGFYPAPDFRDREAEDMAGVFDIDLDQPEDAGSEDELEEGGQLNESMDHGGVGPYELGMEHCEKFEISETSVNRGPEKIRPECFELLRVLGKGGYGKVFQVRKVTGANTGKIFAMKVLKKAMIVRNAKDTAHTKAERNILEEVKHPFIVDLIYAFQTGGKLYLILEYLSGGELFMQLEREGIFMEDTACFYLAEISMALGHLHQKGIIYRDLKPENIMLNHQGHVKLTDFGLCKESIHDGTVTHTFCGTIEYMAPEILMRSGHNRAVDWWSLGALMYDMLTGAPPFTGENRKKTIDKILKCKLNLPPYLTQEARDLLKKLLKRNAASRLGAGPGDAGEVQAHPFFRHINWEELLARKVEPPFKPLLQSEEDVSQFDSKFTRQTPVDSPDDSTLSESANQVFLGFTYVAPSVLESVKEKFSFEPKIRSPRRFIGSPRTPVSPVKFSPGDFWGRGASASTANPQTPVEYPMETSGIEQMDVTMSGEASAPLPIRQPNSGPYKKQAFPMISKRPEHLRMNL
Method in brief: as §1

266 human kinases [11] = target: 266 human kinases (Homo sapiens, UniProt P16591); details: Fer(h); 100 μM
266 human kinases (Homo sapiens, UniProt P16591), sequence (P16591 whole entry): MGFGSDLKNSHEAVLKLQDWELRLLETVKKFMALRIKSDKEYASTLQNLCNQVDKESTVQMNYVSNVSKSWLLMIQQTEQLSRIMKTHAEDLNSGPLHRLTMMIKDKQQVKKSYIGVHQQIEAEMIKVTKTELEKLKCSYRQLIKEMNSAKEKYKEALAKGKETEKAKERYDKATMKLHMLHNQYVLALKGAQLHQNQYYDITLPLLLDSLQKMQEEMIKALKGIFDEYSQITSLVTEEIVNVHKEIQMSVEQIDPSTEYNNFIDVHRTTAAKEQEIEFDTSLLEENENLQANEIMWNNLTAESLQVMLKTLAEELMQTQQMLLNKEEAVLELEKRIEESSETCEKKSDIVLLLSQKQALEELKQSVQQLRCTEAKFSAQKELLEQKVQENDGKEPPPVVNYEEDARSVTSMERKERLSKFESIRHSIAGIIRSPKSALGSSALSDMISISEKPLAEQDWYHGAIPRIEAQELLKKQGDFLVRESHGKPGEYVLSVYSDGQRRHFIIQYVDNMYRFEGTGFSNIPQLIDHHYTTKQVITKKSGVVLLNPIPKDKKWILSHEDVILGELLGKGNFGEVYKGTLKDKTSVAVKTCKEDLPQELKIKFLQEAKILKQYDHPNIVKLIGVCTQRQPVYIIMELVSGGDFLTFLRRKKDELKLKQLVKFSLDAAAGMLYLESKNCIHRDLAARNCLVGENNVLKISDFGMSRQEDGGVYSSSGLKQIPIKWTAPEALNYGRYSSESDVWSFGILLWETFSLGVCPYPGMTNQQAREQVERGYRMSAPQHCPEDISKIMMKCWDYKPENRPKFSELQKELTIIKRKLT
Method in brief: as §1

266 human kinases (Homo sapiens, UniProt P06241), sequence (P06241 whole entry): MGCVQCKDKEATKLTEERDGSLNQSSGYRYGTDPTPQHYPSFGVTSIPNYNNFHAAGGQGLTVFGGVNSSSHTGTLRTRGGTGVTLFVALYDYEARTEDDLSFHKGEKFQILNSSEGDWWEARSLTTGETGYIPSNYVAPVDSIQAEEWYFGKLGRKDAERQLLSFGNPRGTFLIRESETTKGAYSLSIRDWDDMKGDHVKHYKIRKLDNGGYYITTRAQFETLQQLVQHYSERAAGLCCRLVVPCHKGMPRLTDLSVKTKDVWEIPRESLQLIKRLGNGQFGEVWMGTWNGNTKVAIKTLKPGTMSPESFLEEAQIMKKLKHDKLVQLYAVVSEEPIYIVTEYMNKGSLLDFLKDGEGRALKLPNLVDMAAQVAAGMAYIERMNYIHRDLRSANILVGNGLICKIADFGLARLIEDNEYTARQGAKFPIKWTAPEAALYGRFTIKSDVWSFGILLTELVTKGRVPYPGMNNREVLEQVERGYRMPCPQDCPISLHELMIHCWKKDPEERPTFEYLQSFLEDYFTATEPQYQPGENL

“HRRIKAWLKKIKALARQLGVAA (mammal) [MMI-0500]” was tested, and the “% activity” value (266 human kinases [1]) was 83%, the “% activity” value (266 human kinases [2]) was 17% and the “% activity” value (266 human kinases [3]) was 3%. The “% activity” value (266 human kinases [4]) was 45%, the “% activity” value (266 human kinases [5]) was 18% and the “% activity” value (266 human kinases [6]) was 48%. For the same sequence, the “% activity” value (266 human kinases [7]; Lck(h) activated) was 76%, the “% activity” value (266 human kinases [7]; Lck(h)) was 359% and the “% activity” value (266 human kinases [8]) was 18%. The “% activity” value (266 human kinases [9]) was 9%, the “% activity” value (266 human kinases [10]) was 3% and the “% activity” value (266 human kinases [11]) was 196%.

“YARAAARQARAKALNRQLGVA (mammal) [MMI-0200]” was tested, and the “% activity” value (266 human kinases [1]) was 75%, the “% activity” value (266 human kinases [2]) was 90% and the “% activity” value (266 human kinases [3]) was 110%. The “% activity” value (266 human kinases [4]) was 101%, the “% activity” value (266 human kinases [5]) was 98% and the “% activity” value (266 human kinases [6]) was 127%. The “% activity” value (266 human kinases [7]; Lck(h) activated) was 90%, the “% activity” value (266 human kinases [8]) was 97% and the “% activity” value (266 human kinases [9]) was 97%. The “% activity” value (266 human kinases [10]) was 84% and the “% activity” value (266 human kinases [11]) was 101%.
